We go through 1 substance from patent publication US20220341931A1.

In assay [1] the target is SARS-CoV-2 (2019-nCoV) Spike S1-His Recombinant Protein (Sino Biological Cat: 40591-VO8H), as barcode-linked antigen (SARS-CoV-2 (2019-nCoV)) (UniProt P0DTC2).
Assay [2] addresses Influenza B [B/Washington/02/2019 (B/Victoria lineage)-like virus] Hemagglutinin (HA), His-Tag (Nati (Influenza B [B/Washington/02/2019 (B/Victoria lineage)-like virus])).
The target in assay [3] is Varicella-Zoster Virus Heterodimer gE/gI (HEK293), His-tag (Native Antigen Company #REC31907-100), a (Varicella-Zoster Virus) (UniProt P09259).
Chain of UniProt P09259 (P09259 31-538 limits assumed, chain 1 of 2): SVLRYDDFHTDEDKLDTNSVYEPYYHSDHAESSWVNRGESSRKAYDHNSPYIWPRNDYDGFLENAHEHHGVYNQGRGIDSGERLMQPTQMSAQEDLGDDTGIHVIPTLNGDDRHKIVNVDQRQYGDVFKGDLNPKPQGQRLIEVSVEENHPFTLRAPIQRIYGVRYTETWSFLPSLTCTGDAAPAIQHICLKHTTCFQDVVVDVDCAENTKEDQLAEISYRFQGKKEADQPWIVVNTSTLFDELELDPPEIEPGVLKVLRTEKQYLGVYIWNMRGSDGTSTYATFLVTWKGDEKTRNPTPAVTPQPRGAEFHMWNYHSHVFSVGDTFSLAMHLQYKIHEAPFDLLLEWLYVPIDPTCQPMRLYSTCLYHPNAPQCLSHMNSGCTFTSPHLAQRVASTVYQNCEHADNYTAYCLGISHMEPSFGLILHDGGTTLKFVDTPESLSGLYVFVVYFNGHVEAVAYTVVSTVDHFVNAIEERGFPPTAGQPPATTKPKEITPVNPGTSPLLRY
Chain of UniProt P09259 (P09258 18-295 limits assumed, chain 2 of 2, further chain): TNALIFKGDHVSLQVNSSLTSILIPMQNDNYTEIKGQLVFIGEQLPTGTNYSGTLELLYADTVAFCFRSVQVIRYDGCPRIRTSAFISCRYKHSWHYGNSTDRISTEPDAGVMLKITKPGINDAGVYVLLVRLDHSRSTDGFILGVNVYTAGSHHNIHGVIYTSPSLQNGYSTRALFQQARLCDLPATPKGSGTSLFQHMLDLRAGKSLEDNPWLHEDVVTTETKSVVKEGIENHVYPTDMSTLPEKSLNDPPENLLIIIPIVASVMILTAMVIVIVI
The target in assay [4] is Human Metapneumovirus (hMPV) B Glycoprotein G, His-Tag (HEK293) (Native Antigen Company #REC31948-10 (Human Metapneumovirus (hMPV) B)).
For assay [5], the target named is Human cytomegalovirus (HCMV) Glycoprotein B/gB Protein (His Tag) (Sino Biological 10202-V08H1), as b (Human cytomegalovirus (HCMV)).
In assay [6] the target is SARS-CoV-2 (2019-nCoV) Spike S1-His Recombinant Protein (Sino Biological Cat: 40591-VO8H), as barcode-linked antigen (SARS-CoV-2 (2019-nCoV)) (UniProt P0DTC2). This is another data set of the same source.
The target of assay [7] is Epstein-Barr virus (Herpesvirus 4) EBV Glycoprotein gp350/EBV GP350 Protein (His Tag) (Sino Biologic (Epstein-Barr virus (Herpesvirus 4)) (UniProt P03200)).
Chain of UniProt P03200 (P03200 1-470): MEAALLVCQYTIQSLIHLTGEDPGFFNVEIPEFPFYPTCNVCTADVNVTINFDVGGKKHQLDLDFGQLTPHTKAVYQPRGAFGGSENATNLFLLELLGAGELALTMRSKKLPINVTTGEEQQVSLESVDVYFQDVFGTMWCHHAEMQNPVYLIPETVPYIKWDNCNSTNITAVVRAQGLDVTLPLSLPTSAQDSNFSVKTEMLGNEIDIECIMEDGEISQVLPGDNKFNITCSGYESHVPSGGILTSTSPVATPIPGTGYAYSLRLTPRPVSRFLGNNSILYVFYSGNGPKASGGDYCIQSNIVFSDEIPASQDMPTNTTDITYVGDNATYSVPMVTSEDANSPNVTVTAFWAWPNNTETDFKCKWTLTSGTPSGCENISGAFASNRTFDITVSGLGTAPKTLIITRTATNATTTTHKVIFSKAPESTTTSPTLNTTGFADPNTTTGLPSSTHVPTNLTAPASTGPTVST

Take “SARS-CoV-2 (2019-nCoV) Nucleocapsid Antibody, Rabbit MAb (Sino Biological Cat: 40143-R019)”: the Spike #/Nuc # in assay [1] was found to be 0.291. This substance gave a barcode sequence counts (FLU B) in assay [2] of 185 counts. For the same substance, the barcode sequence counts (VZV) in assay [3] is 200 counts. Besides, the barcode sequence counts (hMPV) in assay [4] is 201 counts. In addition, the barcode sequence counts (HCMV) in assay [5] is 836 counts. Besides, the barcode sequence counts (COVID Spike) in assay [6] is 900 counts. The substance also registered a barcode sequence counts (EBV) in assay [7] of 1080 counts.
